Data on 2 molecules can be found in paper PMC10948360, “Tropomyosin 1-I/C coordinates kinesin-1 and dynein motors during oskar mRNA transport” (Nature Structural & Molecular Biology, 2024).

The target in experiment [1] is T1, Khc motor domain (Khc 1-365) (Drosophila, UniProt P17210 1-365).
T1 construct: Kinesin heavy chain (Khc), Drosophila, amino acids 1-365 (motor domain); GST removal with 3C protease is stated for NMR; for the pull-down the prey is printed as Khc 1–365 without GST; source: E. coli BL21-CodonPlus(DE3)-RIL, purified (GSTrap, SEC)
T1 sequence (looked up): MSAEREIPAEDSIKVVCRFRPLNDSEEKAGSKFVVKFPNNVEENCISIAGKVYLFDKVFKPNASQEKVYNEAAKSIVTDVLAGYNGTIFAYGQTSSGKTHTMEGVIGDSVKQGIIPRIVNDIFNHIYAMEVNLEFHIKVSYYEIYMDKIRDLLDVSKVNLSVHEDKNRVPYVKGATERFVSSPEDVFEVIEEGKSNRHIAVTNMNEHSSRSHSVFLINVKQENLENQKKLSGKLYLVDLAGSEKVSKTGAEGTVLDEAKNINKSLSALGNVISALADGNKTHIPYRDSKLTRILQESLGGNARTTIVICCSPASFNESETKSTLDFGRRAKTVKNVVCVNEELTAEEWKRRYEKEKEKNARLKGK
Briefly: pull-down; GST-Khc 855–975 (5 or 10 µM) as bait on glutathione Sepharose, 50 µM Khc 1–365 as prey, Tm1 1–335 at 5 to 15 µM; GF150 buffer, 4 °C. The conditions noted are these: both partners purified.

Experiment [2] deals with T1, Khc motor domain (Khc 1-365). The experiment can be described thus: NMR titration; 1H-15N HSQC of 50 µM 15N-labeled Khc 855–975 at 298 K, 25 mM NaPO4 pH 6.5, 150 mM NaCl; unlabeled partners added, with or without U10 RNA. The following applies: both partners purified.

B1: GST-Khc 855-975 (domain or fragment)
chain: not shown
For the molecule B1, in experiment [1], the binding result is recorded as “binds”.

B2: Khc tail (Khc 855-975) (domain or fragment)
chain: not shown
notes: 15N-labeled (13C,15N for assignment) in the NMR experiments; used unlabeled in microtubule pelleting; also called tail domain
Consider B2, for which the binding result in experiment [2] is on record as “binds”.
